Residue numbers refer to the chain shown, from its start.

By Kd is commonly meant a measure of binding affinity in units of concentration. Broadly, the koff is the first-order rate constant of dissociation. A word on the kon: it is a measure of how fast the partners come together.

In assay [1] the target is T1, Recombinant human Factor IX (rhFIX, Genetics Institute) (human, UniProt P00740 47-461). Put plainly: isothermal titration calorimetry, 25 C. The method, then: (§1) The interactions between rhFIX and SB 249417 , BC2 and other humanized constructs were characterized by titration microcalorimetry, which measures binding interactions in solution from the intrinsic heat of binding. Nine injections of 106 uM FIX were made into the calorimeter containing 2 uM mAb SB 249417. Binding was detected in the first 4 injections as exothermic heats. At the last 5 injections the mAb binding sites were saturated with FIX and only background heats of mixing were observed. […] Nonlinear least squares analysis of the data yield the binding affinity.

Assay [2] addresses T1, Recombinant human Factor IX (rhFIX, …). Put plainly: biosensor (BIAcore). The method, then:
(§2) The kinetics of Factor IX binding to SB 249417 was assessed by BIAcore analysis with antibody bound to an immobilized protein A surface. Recombinant human Factor IX (rhFIX, Genetics Institute) at 49 nM was used and measurements performed in the presence of 5 mM Ca²⁺.

Assay [3] has the same target. As to the kind of experiment: SPR (BIAcore), antibody bound to immobilized protein A, rhFIX in solution, 5 mM Ca2+. As to the method: as §2
A general note: In SPR one partner is held on a chip, and binding of the other changes the refractive index at the surface.

Assay [4] shares this target. As to the kind of experiment: titration calorimetry, calculated for 25 C by the van't Hoff equation, 10 mM CaCl2. The method, then:
as §1

Assay [5] shares this target. As to the kind of experiment: titration calorimetry. The method, then:
as §1

Assay [6] has the same target. As to the kind of experiment: SPR (BIAcore), calculated from kinetics. The method, then:
as §2

The target is the same in assay [7]. As to the kind of experiment: titration microcalorimetry, 106 uM FIX injected into 2 uM mAb. As to the method:
as §1

For assay [8] the target is unchanged. Put plainly: titration calorimetry, 37 C, 10 mM CaCl2. The method, then: as §1
The target is the same in assay [9]. As to the kind of experiment: isothermal titration calorimetry. As to the method: as §1
(In ITC the heat of successive injections is recorded.)

For assay [10] the target is unchanged. Put plainly: SPR (BIAcore), antibody bound to immobilized protein A, Factor IX in solution. The method, then:
as §2

For assay [11], the target named is human Factor IX (human, UniProt P00740 47-461). As to the kind of experiment: cell-based or functional assay.
Assay [12] has as its target T2, VII-A/IX (UniProt P08709 61-105; P00740 93-461, limits assumed).
T2 construct: The make-up is read from the label by analogy with IX-A/VII
Put plainly: SPR (BiaCore 2000), BC2 coupled to the chip, construct injected, 5 mM CaCl2. The method, then: (§3) A library of chimeric constructs composed of sequences of Factor IX spliced into the framework of the homologous protein Factor VII was constructed and used to map the epitope for the Factor IX BC2 mAb. See Cheung et al., Thromb. Res. 80, 419-427 (1995). Binding was measured using a BiaCore 2000 surface plasmon resonance device. The BC2 antibody was coupled directly to the chip using the NHS/EDC reaction. Binding was measured by 2 min of contact time at 20 uL/min with 200 nM of each of the given constructs in 25 mM MOPS, pH 7.4, 0.15 M NaCl, 5 mM CaCl2. Dissociation was monitored for 3 min using the same buffer with no protein. No binding was detected to the wild type construct in the presence of 50 mM EDTA.

Assay [13] deals with T3, Plasma VII (UniProt P08709 61-466).
T3 construct: also called Factor VII
T3 sequence (looked up): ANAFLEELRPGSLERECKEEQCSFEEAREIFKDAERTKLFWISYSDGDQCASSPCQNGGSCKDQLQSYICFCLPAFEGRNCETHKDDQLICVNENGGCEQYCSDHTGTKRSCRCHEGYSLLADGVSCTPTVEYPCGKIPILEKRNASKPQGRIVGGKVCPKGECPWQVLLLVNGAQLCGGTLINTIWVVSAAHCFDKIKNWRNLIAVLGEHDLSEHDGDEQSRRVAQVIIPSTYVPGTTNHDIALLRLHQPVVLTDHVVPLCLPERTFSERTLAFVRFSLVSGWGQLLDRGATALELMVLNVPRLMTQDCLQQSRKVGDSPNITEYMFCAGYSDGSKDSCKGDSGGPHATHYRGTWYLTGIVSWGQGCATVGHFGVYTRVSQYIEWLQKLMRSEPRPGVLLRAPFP
The description is as above. The method, then: as §3

Assay [14] has as its target IX K5A (Factor IX having a lysine to alanine substitution at residue 5) (UniProt P00740 47-461, K5A). Put plainly: SPR (BiaCore 2000), BC2 coupled to the chip, 200 nM construct, 5 mM CaCl2. As to the method: as §3

T1 sequence (P00740 47-461 limits assumed): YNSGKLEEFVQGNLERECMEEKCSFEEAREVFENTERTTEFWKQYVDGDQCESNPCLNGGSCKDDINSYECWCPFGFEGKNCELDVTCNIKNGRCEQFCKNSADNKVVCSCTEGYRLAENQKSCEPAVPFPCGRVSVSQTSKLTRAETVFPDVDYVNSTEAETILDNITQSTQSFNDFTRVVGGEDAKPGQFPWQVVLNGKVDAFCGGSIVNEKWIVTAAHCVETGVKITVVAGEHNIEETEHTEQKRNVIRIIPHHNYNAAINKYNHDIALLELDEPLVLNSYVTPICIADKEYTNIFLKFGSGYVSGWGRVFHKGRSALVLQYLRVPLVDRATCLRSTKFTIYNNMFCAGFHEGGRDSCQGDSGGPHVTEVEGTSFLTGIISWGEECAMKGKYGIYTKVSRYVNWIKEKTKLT
human Factor IX, sequence (P00740 47-461 limits assumed): as above
IX K5A (Factor IX having a lysine to alanine substitution at residue 5), sequence (P00740 47-461 K51A): as the sequence (P00740 47-461 limits assumed) above, with K5A counted along it

B1: humanized anti-human Factor IX monoclonal antibody SB 249417 (antibody, V domains shown)
VH: QVQLVQSGSELKKPGASVKVSCKASGYTFTNYGMNWVRQAPGQGLKWMGWINTRNGKSTYVDDFKGRFVFSLDSSVSTAYLQISSLKADDTAVYYCTREGNMDGYFPFTYWGQGTLVTVSS
VL: QIVLTQSPSSLSASVGDRVTITCRASSSVNYMHWYQQKPGKAPKPWIYATSNLASGVPSRFSGSGSGTDYTFTISSLQPEDIATYYCQQWSINPRTFGQGTKVEIKR
notes: also called F9HZHC 1-1 / F9HZLC 2-0
In the case of B1, the Kd in [1] is 4 nM; in [2], 2 nM; in assay [4], 4 nM; in assay [6], 1.9 nM; in assay [8] it was 12 nM. For the same molecule, the off-rate (koff) in assay [2] is 0.0004 s⁻¹; in [3] it was 0.00041 s⁻¹. Further, the kon in assay [2] and in assay [3] was 200000 M⁻¹ s⁻¹ in each case. Also, the “Molar Binding Ratio FIX/mAb” value in assay [5] turned out to be 1.5 FIX/mAb. For the same molecule, the “molar binding ratio at the equivalence point” value in assay [7] was about 2 FIX per mAb. The “Stoichiometry of Factor IX Binding” value in assay [9] is 1.5 moles Factor IX : 1 mole mAb.

B2: humanized anti-human Factor IX monoclonal antibody SB 257731 (antibody, human IgG1, V domains shown)
VH: B1 VH
VL: QIVLTQSPATLSLSPGERATLSCRASSSVNYMHWYQQRPGQAPKPWIYATSNLASGVPARFSGSGSGTDYTLTISSLEPEDFAVYYCQQWSINPRTFGGGTKVEIK
notes: Human IgG1 and kappa constant regions from the vectors; also called F9HZHC 1-1 / F9HZLC 1-3
On to B2, for which, in [10], the koff is 0.00099 s⁻¹ and the kon stood at 920000 M⁻¹ s⁻¹. For the same molecule, the dissociation constant Kd in [6] is 1.1 nM.

B3: humanized anti-human Factor IX monoclonal antibody SB 257732 (antibody, human IgG1, V domains shown)
VH: B1 VH with V2I, K46E, S74T, D89E, Y95F
VL: B1 VL with F72L, I82F, Q99G, V103L
notes: Human IgG1 and kappa constant regions from the vectors; also called F9HZHC 3-0 / F9HZLC 3-0
As for B3, the Kd in assay [4] is 4 nM; in [6] it was 1.5 nM; in assay [8] it was 9 nM. Besides, the “Molar Binding Ratio FIX/mAb” value in assay [5] came out at 1.8 FIX/mAb. In addition, the off-rate constant (koff) in assay [10] was found to be 0.0012 s⁻¹. Further, the on-rate (kon) in assay [10] came out at 1.1e+06 M⁻¹ s⁻¹.

B4: humanized anti-human Factor IX monoclonal antibody SB 249415 (antibody, human IgG1, V domains shown)
VH: B1 VH
VL: EIVLTQSPATLSLSPGERATLSCRASSSVNYMHWYQQRPGQAPKPWIYATSNLASGVPARFSGSGSGTDFTLTISSLEPEDFAVYYCQQWSINPRTFGGGTKVEIKR
notes: Human IgG1 and kappa constant regions from the vectors; also called F9HZHC 1-1 / F9HZLC 1-1
As for B4, the Kd is 3 nM in [4], 1.1 to 2.3 nM in [6] and 7 nM in assay [8]. The “Molar Binding Ratio FIX/mAb” value in assay [5] was 1.7 FIX/mAb. For the same molecule, the off-rate (koff) in [10] amounted to 0.00018 s⁻¹. The kon in assay [10] was found to be 750000 M⁻¹ s⁻¹.

B5: humanized anti-human Factor IX monoclonal antibody SB 249413 (antibody, human IgG1, V domains shown)
VH: B1 VH with K46E, S74T, T97A
VL: B4 VL with K44R, P45L, W46L, V57I
notes: also called F9HZHC 1-0 / F9HZLC 1-0
As for B5, the values for the dissociation constant Kd in assay [4], in assay [6] and in [8] were 6 nM, 3.7 to 5.1 nM and 12 nM, respectively. For the same molecule, in assay [5], the “Molar Binding Ratio FIX/mAb” value was 1.9 FIX/mAb. For the same molecule, in [10], the koff was 0.0028 s⁻¹. The kon in assay [10] was determined as 650000 M⁻¹ s⁻¹.

B6: humanized anti-human Factor IX monoclonal antibody SB 249416 (antibody, human IgG1, V domains shown)
VH: B1 VH
VL: B4 VL with F70Y
notes: Human IgG1 and kappa constant regions from the vectors; also called F9HZHC 1-1 / F9HZLC 1-2
Consider B6, for which, in assay [10], the koff turned out to be 0.00041 s⁻¹ and the kon was found to be 520000 M⁻¹ s⁻¹. Besides, in assay [6], the Kd is 0.8 nM.

B7: murine anti-Factor IX monoclonal antibody BC2 (antibody, mouse IgG2a, V domains shown)
VH: QIQLVQSGPELKKPGETVKISCKASGYTFTNYGMNWVKQAPGKGLKWMGWINTRNGKSTYVDDFKGRFAFSLESSASTANLQIDNLKDEDTATYFCTREGNMDGYFPFTYWGQGTLVTVSA
VL: QIVLSQSPAILSASPGEKVTMTCRASSSVNYMHWYQQKPGSSPKPWIYATSNLASGVPARFSGSGSGTSYSLTISRVEAEDAATYYCQQWSINPRTFGGGTKLEIKR
notes: also called BC2 mAb; BC2 Antibody
Turning to B7, the Kd in assay [4] is 10 nM; in assay [6], 1.9 nM; in assay [8], 20 nM. Also, the “Molar Binding Ratio FIX/mAb” value in assay [5] amounted to 1.4 FIX/mAb. Further, the “IC50, nM (aPTT clotting time of human plasma)” value in [11] was about 50 nM. Moreover, the off-rate constant (koff) in assay [10] was determined as 0.00091 s⁻¹. In addition, the kon in assay [10] worked out at 480000 M⁻¹ s⁻¹. Moreover, the binding result was “no binding (tested: 200 nM)” in assay [12], “no binding (tested: 200 nM)” in [13] and “binds” in assay [14].

B8: mouse-human chimeric anti-Factor IX monoclonal antibody chαFIX (antibody, V domains shown)
VH: B7 VH
VL: QIVLSQSPAILSASPGEKVTMTCRASSSVNYMHWYQQKPGSSPKPWIYATSNLASGVPARFSGSGSGTSYSLTISRVEAEDAATYYCQQWSINPRTFGGGTKLEIK
notes: BC2 variable regions with human constant regions; also called Chf9; F9CHHC / F9CHLC
In the case of B8, in [10], the koff worked out at 0.0003 s⁻¹ and the on-rate constant (kon) was found to be 240000 M⁻¹ s⁻¹. Besides, the Kd in [6] was 1.3 nM.

Source of the values: patent publication US20070224198A1 (GlaxoSmithKline, published 2007).
